Laboratory results reported in patent US20210277147A1 (SINO SWED TONGKANG BIO TECH SHENZHEN, published 2021).

Assays:
[1] = target: T1, recombinant human thymidine kinase 1 (hTK1) protein (human, UniProt P04183 1-234, limits assumed); test: indirect ELISA on coated hTK1, anti-full-length IgY biotin detection
T1 construct: ELISA coating antigen at 0.5 ug/ml, 100 ul per well (50 ng/well); also called recombinant hTK1 antigen
T1 sequence (looked up): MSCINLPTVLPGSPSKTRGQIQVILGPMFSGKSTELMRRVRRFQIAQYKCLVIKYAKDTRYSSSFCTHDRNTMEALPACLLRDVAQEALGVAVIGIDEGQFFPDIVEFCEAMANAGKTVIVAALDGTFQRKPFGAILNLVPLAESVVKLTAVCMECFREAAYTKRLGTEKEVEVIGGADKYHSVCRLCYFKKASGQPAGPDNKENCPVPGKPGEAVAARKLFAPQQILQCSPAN
Experimental: (§1) The recombinant IgY scFv antibody contains not only the hypervariable region that binds to hTK1, but also the highly conserved framework region (FR). In this embodiment, the HA 9-peptide tag of human influenza hemagglutinin was added. Therefore, when detecting recombinant single-chain antibodies by indirect ELISA, biotin-labeled anti-full-length IgY secondary antibody and horseradish peroxidase-labeled anti-human influenza hemagglutinin HA 9-peptide monoclonal antibodies were used as labeled antibodies, to detect recombinant anti-hTK1 single-chain antibody expressed in CHO cells. The supernatant of the transfected cells was collected and the expression level of recombinant scFv antibody was detected by ELISA experiment. The specific method is as follows:
(§2) The OD value of the CHO cell supernatant transfected with the scFv antibody gene is 6.6 times that of the CHO cell supernatant not transfected, and the ratio of the recombinant hTK1 antigen to the negative antigen control is 6.9.

[2] = target: T1, recombinant human thymidine kinase 1 …; test: indirect ELISA on coated hTK1, HRP-labeled anti-HA monoclonal antibody detection
Experimental: as §1, §2

[3] = target: T1, recombinant human thymidine kinase 1 …; test: indirect ELISA, hTK1-coated wells against coating-solution wells, HRP-labeled anti-HA monoclonal antibody detection
Experimental: as §1, §2

[4] = target: T1, recombinant human thymidine kinase 1 …; test: indirect ELISA, hTK1-coated wells against coating-solution wells, anti-full-length IgY biotin detection
Experimental: as §1, §2

B1: recombinant anti-hTK1 chicken IgY single-chain variable fragment (scFv) antibody expressed in CHO cells (scFv)
scFv: MAAVTLDESGGGLQTPGGALSLVCKGSGFTFSSDAMGWMRQAPGKGLEFVARINSAGSYTDYGSAVDGRATISRDNGQSTVRLQLNNLRAEDTSTYFCAKSPGGFSCAYGLCWDAAGSIDAWGHGTEVIVSSGGGSGGGGSGGGGSGGGSALTQPSSVSANLGGTVKITCSGGANYYGWFQQKTPGSAPVSLIYESTKRPSNIPSRFSGSKSGSTGTLTITGVRADDEAVYYCGTYDSSTHTSIFGAGTTLYPYDVPDYA
notes: Tested as unpurified supernatant of transiently transfected CHO cells; also called recombinant IgY scFv antibody; recombinant anti-hTK1 single-chain antibody
OD ratio to the CHO cell supernatant not transfected [1]: 6.6 fold
OD ratio to the untransfected CHO cell supernatant [2]: 2.6 fold
ratio of the recombinant hTK1 antigen to the negative antigen control [3]: 0.287 ratio
ratio of the recombinant hTK1 antigen to the negative antigen control [4]: 6.9 ratio
